{"source": "patent US20170051047A1", "about": "(CANGENE, published 2017)", "key": {"[1]": {"target": "T1, Clostridium difficile toxin A (whole toxin A) (Clostridium difficile, UniProt P16154 1-2710)"}, "[2]": {"target": "T1, Clostridium difficile toxin A (whole …)", "test": "cell-based or functional assay"}, "[3]": {"target": "T2, Clostridium difficile toxin B (whole) (Clostridium difficile, UniProt P18177 2-2366)", "T2 construct": "mature", "test": "Western blot"}, "[4]": {"target": "T1, Clostridium difficile toxin A (whole …)", "remark": "listed apart in the source"}}, "note": "Like-named read-outs stand apart in the source and are kept apart here.", "data": [{"binder": "CAN20G1 (antibody, V domains shown) VH: QIQLVQSGPELKKPGETVKISCKASGYTFTNDGMNWVKQAPGKGLKWMGWINTNTGEPTYVEEFKGRFAFSLETSASTAYLQINNLKNEDTATYFCYVNYDYYTMDCWGQGTSVTVSS VL: QVVLTQSPAIMSASLGERVTMTCTASSSVISSYLHWYQQKPGSSPKLWIYSTSTLASGVPARFSGSGSGTSYSLTISSMEAEDAATYYCLQYHRSPRTFGGGTKLEIK", "values": [{"measurement": "Kd", "setting": "[1]", "value": 1.79, "unit": "nM"}, {"measurement": "koff", "setting": "[1]", "value": 0.000219, "unit": "s⁻¹"}, {"measurement": "kon", "setting": "[1]", "value": 123000, "unit": "M⁻¹ s⁻¹"}, {"measurement": "EC50 Value (µg/mL), in vitro toxin A neutralization", "setting": "[2]", "value": 0.17, "unit": "µg/mL"}, {"measurement": "binding result", "setting": "[3]", "value": "no binding (tested: 1 µg/ml)"}]}, {"binder": "AVA-huCAN20G2 (antibody, V domains shown) VH: QIQLVQSGPELKKPGETVKISCKASGYTFTNQGMNWVKQAPGKGLKWMGWINTNTGEPTYTADFTGRFAFSLETSVSTAYLQINSLKAEDTATYFCYVNYDYYTMDFWGQGTLVTVSS VL: DIQMTQSPSSLSASVGDRVTITCSASSSVISTYLNWYQQKPGKAPKVLIYSTSSLHSGVPSRFSGSGSGTDFTLTISSLQPEDFATYYCLQYHRSPRTFGQGTKVEIKR", "values": [{"measurement": "Kd", "setting": "[4]", "value": 1.33, "unit": "nM"}, {"measurement": "koff", "setting": "[4]", "value": "9.02e-05", "unit": "s⁻¹"}, {"measurement": "kon", "setting": "[4]", "value": 54500, "unit": "M⁻¹ s⁻¹"}]}, {"binder": "HE-huCAN20G2 (antibody, V domains shown) VH: QIQLVQSGPELKKPGETVKISCKASGYTFTNQGMNWVKQAPGKGLKWMGWINTNTGEPTYTADFTGRFAFSLETSVSTAYLQINSLKAEDTATYFCYVNYDYYTMDFWGQGTLVTVSS VL: DVQLTQSPSIMSASLGDRVTMTCTASSSVISTYLHWYQQKPGSSPKLWIYSTSTLASGVPPRFSGSGSGTDYSLTISSMEPEDAATYYCLQYHRSPRTFGGGTKVEIKR", "values": [{"measurement": "Kd", "setting": "[4]", "value": 0.332, "unit": "nM"}, {"measurement": "koff", "setting": "[4]", "value": "3.14e-05", "unit": "s⁻¹"}, {"measurement": "kon", "setting": "[4]", "value": 93900, "unit": "M⁻¹ s⁻¹"}]}, {"binder": "CAN20G8 (antibody, V domains shown) VH: QIQLVQSGPELKKPGETVKISCKASGYAFTNDGMNWVKQAPGKGLKWMGWINTNTGEPTYAEEFKGRFAFSLETSASTAYLQINNLKNEDTATYFCYVNYDYYTMDCWGQGTSVTVSS VL: QVVLTQSPAIMSASLGERVTMTCTASSSVISSYLHWYQQKPGSSPKLWIYSTSILASGVPARFSGSGSGTSYSLTISSMEAEDAATYYCLQYHRSPRTFGGGTKLEIK", "values": [{"measurement": "Kd", "setting": "[1]", "value": 1.65, "unit": "nM"}, {"measurement": "koff", "setting": "[1]", "value": 0.000216, "unit": "s⁻¹"}, {"measurement": "kon", "setting": "[1]", "value": 131000, "unit": "M⁻¹ s⁻¹"}, {"measurement": "EC50 Value (µg/mL), in vitro toxin A neutralization", "setting": "[2]", "value": 0.137, "unit": "µg/mL"}, {"measurement": "binding result", "setting": "[3]", "value": "no binding (tested: 1 µg/ml)"}]}, {"binder": "CAN20G5 (antibody, V domains shown) VH: QIQLVQSGPELKKPGETVKISCKASGYSFTNSGMNWVKEAPGKGLKWMGWINTNTGEPTYAEEFMGRFAFSLETSASTAYLQINNLKNEDTATYFCYVNYDYYTIDYWGQGTSVTVSS VL: QIVLTQSPAIMSASLGERVTMTCTASSSVYSTYLHWYQQKPGSSPKLWIYSTSNLASGVPARFSGSGSGTSYSLTISSMEAEDAATYYCHQYHRSPRTFGGGTKLEIK", "values": [{"measurement": "Kd", "setting": "[1]", "value": 2.01, "unit": "nM"}, {"measurement": "koff", "setting": "[1]", "value": 0.000168, "unit": "s⁻¹"}, {"measurement": "kon", "setting": "[1]", "value": 83800, "unit": "M⁻¹ s⁻¹"}, {"measurement": "EC50 Value (µg/mL), in vitro toxin A neutralization", "setting": "[2]", "value": 0.13, "unit": "µg/mL"}, {"measurement": "binding result", "setting": "[3]", "value": "no binding (tested: 1 µg/ml)"}]}, {"binder": "CAN20G2 (antibody, V domains shown) VH: QIQLVQSGPEVKKPGETVKISCKASGYTFTNQGMNWVKQAPGKGLKWMGWINTNTGEPTYTEEFKGRFAFSLETSASTAYLQINNLKNEDTATYFCYVNYDYYTMDFWGQGTSVTVSS VL: QVVLTQSPAIMSASLGDRVTMTCTASSSVISTYLHWYQQKPGSSPKLWIYSTSTLASGVPPRFSGSGSGTSYSLTISSMEAEDAATYYCLQYHRSPRTFGGGTKLEIK", "values": [{"measurement": "EC50 Value (µg/mL), in vitro toxin A neutralization", "setting": "[2]", "value": 0.0101, "unit": "µg/mL"}]}, {"binder": "CDR-huCAN20G2 (antibody, V domains shown) VH: QVQLVQSGSELKKPGASVKVSCKASGYTFTNQGMNWVRQAPGQGLEWMGWINTNTGEPTYAQGFTGRFVFSLDTSVSTAYLQISSLKAEDTAVYYCYVNYDYYTMDFWGQGTTVTVSS VL: DIQMTQSPSSLSASVGDRVTITCRASSSVISTYLNWYQQKPGKAPKLLIYSTSSLQSGVPSRFSGSGSGTDFTLTISSLQPEDFATYYCLQYHRSPRTFGGGTKVEIK", "values": [{"measurement": "Kd", "setting": "[4]", "value": 0.8, "unit": "nM"}, {"measurement": "koff", "setting": "[4]", "value": "5.41e-05", "unit": "s⁻¹"}, {"measurement": "kon", "setting": "[4]", "value": 67600, "unit": "M⁻¹ s⁻¹"}]}]}
